The labels stand for the following.
T1: human VEGF (hVEGF) (human, UniProt P15692 181-395)
T1 construct: also called VEGF-A
T1 sequence: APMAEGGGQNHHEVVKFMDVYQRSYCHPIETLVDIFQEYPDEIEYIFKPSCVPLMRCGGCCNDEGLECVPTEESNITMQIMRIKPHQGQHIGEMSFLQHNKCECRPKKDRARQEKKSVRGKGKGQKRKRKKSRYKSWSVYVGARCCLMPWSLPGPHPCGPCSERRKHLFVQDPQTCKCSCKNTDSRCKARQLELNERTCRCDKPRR

B1: G6.31 HC-A40E, HC-T57E (Fab, V domains shown)
VH: EVQLVESGGGLVQPGGSLRLSCAASGFTISDYWIHWVRQEPGKGLEWVAGITPAGGYEYYADSVKGRFTISADTSKNTAYLQMNSLRAEDTAVYYCARFVFFLPYAMDYWGQGTLVTVSS
VL: DIQMTQSPSSLSASVGDRVTITCRASQDVSTAVAWYQQKPGKAPKLLIYSASFLYSGVPSRFSGSGSGTDFTLTISSLQPEDFATYYCQQGYGNPFTFGQGTKVEIK
notes: Fab
B2: G6.31 HC-A40E, HC-T57E, LC-F83A, LC-N94A, LC-T22D (Fab, name in Kabat numbering, V domains shown)
VH: B1 VH
VL: B1 VL with T22D, F83A, N94A
notes: Fab
B3: G6.31 LC-F83A, LC-N94A, LC-T22D (Fab, name in Kabat numbering, V domains shown)
VH: B1 VH with E40A, E58T
VL: B1 VL with T22D, F83A, N94A
notes: Fab
B4: G6.31 Y58R.N94A.F83A (Fab, name in Kabat numbering, V domains shown)
VH: B1 VH with E40A, E58T, Y59R
VL: B1 VL with F83A, N94A
notes: Fab
B5: HCLC3 (Fab, V domains shown)
VH: B1 VH with V2E, S7E, G16E, R19E, T28E, K43E, K65E, K76E, S85E, T114E
VL: B1 VL with S9E, R18E, K42E, F83A, N94A
notes: Fab
B6: HCLC2 (Fab, V domains shown)
VH: B1 VH with V2E, S7E, G16E, R19E, T28E, K43E, K65E, K76E, S85E, T114E
VL: B1 VL with R18E, K42E, S76E, F83A, N94A
notes: Fab
B7: R19HCLC4 (Fab, V domains shown)
VH: B1 VH with V2E, S7E, G16E, T28E, K43E, K65E, K76E, S85E, T114E
VL: B1 VL with R18E, F83A, N94A
notes: Fab
B8: HCLC1 (Fab, V domains shown)
VH: B1 VH with V2E, S7E, G16E, R19E, T28E, K43E, K65E, K76E, S85E, T114E
VL: B1 VL with S9E, R18E, F83A, N94A
notes: Fab
B9: HCLC4 (Fab, V domains shown)
VH: B1 VH with V2E, S7E, G16E, R19E, T28E, K43E, K65E, K76E, S85E, T114E
VL: B1 VL with R18E, F83A, N94A
notes: Fab
B10: R19HCLC2 (Fab, V domains shown)
VH: B1 VH with V2E, S7E, G16E, T28E, K43E, K65E, K76E, S85E, T114E
VL: B1 VL with R18E, K42E, S76E, F83A, N94A
notes: Fab
B11: HCLC5 (Fab, V domains shown)
VH: B1 VH with V2E, S7E, G16E, R19E, T28E, K43E, K65E, K76E, S85E, T114E
VL: B1 VL with F83A, N94A
notes: Fab
B12: R19HCLC5 (Fab, V domains shown)
VH: B1 VH with V2E, S7E, G16E, T28E, K43E, K65E, K76E, S85E, T114E
VL: B1 VL with F83A, N94A
notes: Fab
B13: LCcombo2 (G6.31 WT VH with LCcombo2 VL) (Fab, V domains shown)
VH: B1 VH with E40A, E58T
VL: B1 VL with R18E, K42E, S76E, F83A, N94A
notes: Fab
B14: LCcombo3 (G6.31 WT VH with LCcombo3 VL) (Fab, V domains shown)
VH: B1 VH with E40A, E58T
VL: B1 VL with S9E, R18E, K42E, F83A, N94A
notes: Fab
B15: LCcombo4 (G6.31 WT VH with LCcombo4 VL) (Fab, V domains shown)
VH: B1 VH with E40A, E58T
VL: B1 VL with R18E, F83A, N94A
notes: Fab
B16: LCcombo1 (G6.31 WT VH with LCcombo1 VL) (Fab, V domains shown)
VH: B1 VH with E40A, E58T
VL: B1 VL with S9E, R18E, F83A, N94A
notes: Fab
B17: HCcombo (Fab, V domains shown)
VH: B1 VH with V2E, S7E, G16E, R19E, T28E, K43E, K65E, K76E, S85E, T114E
VL: B1 VL
notes: Fab
B18: G6.31 HC-Q81W (Fab, name in Kabat numbering, V domains shown)
VH: B1 VH with E40A, E58T, Q82W
VL: B1 VL
notes: Fab
B19: G6.31 HC-Y59T (Fab, name in Kabat numbering, V domains shown)
VH: B1 VH with E40A, E58T, Y60T
VL: B1 VL
notes: Fab
B20: G6.31 LC-Q37A (Fab, V domains shown)
VH: B1 VH with E40A, E58T
VL: B1 VL with Q37A
notes: Fab
B21: G6.31 HC-T73N (Fab, name in Kabat numbering, V domains shown)
VH: B1 VH with E40A, E58T, T74N
VL: B1 VL
notes: Fab
B22: G6.31 HC-S70H (Fab, name in Kabat numbering, V domains shown)
VH: B1 VH with E40A, E58T, S71H
VL: B1 VL
notes: Fab
B23: G6.31 LC-Q89N (Fab, V domains shown)
VH: B1 VH with E40A, E58T
VL: B1 VL with Q89N
notes: Fab
B24: G6.31 LC-T97N (Fab, V domains shown)
VH: B1 VH with E40A, E58T
VL: B1 VL with T97N
notes: Fab
B25: G6.31 HC-Y58Q (Fab, name in Kabat numbering, V domains shown)
VH: B1 VH with E40A, E58T, Y59Q
VL: B1 VL
notes: Fab

Positions count from the first letter of the chain named. Numbers in names are those of the source.

One assay has as its target T1, human VEGF (hVEGF). Briefly: SPR. For orientation: In SPR one partner is held on a chip, and binding of the other changes the refractive index at the surface.
From the text: (§1) To determine the binding affinity of selected Fab variants, SPR measurement with a BIACORE® T200 instrument was used. Briefly, series S sensor chip CM5 was activated with 1-ethyl-3-(3-dimethylaminopropyl) carbodiimide (EDC) and N-hydroxysuccinimide (NHS) reagents according to the supplier's instructions, and human VEGF (hVEGF) was coupled to achieve 50-80 response units (RU), then following by blocking un-reacted groups with 1M ethanolamine.
(§2) Three-fold serial dilutions of Fab in HBS-P buffer (0.01 M HEPES pH 7.4, 0.15 M NaCl, 0.005% surfactant P20) from low (0.02 nM) to high (50 nM) were injected (flow rate: 30 μl/min). The binding responses on hVEGF were corrected by subtracting of RU from a blank flow cell. The sensorgram was recorded and subject to reference and buffer subtraction before evaluating by BIACORE® T200 Evaluation Software (version 2.0). Association rates (kₒₙ) and dissociation rates (koff) were calculated using a simple one-to-one Langmuir binding model. The equilibrium dissociation constant (Kd) was calculated as the ratio koff/kₒₙ.
For the molecule B1, the dissociation constant (Kd) (commonly the constant that tells how readily two partners part at equilibrium) amounted to 0.272 nM; the koff (commonly the rate constant with which the complex falls apart) was 0.000804 s⁻¹; the kon (in general, the second-order rate constant of association) worked out at 2.96e+06 M⁻¹ s⁻¹.
B2: the Kd turned out to be 0.597 nM, the koff came to 0.000718 s⁻¹ and the kon came out at 1.2e+06 M⁻¹ s⁻¹.
The molecule B3 displayed a Kd of 0.558 nM, a koff of 0.000744 s⁻¹ and a kon of 1.33e+06 M⁻¹ s⁻¹.

The target of another assay is T1, human VEGF (hVEGF). In words: SPR. The source holds these as a separate data set.
From the text: as §1, §2
On to B4, for which the “Fold improved (relative to WT)” value worked out at 3.9 fold, the Kd is 0.135 nM, the koff was 0.000301 s⁻¹ and the kon came out at 2.22e+06 M⁻¹ s⁻¹.

The target in another assay is T1, human VEGF (hVEGF). In words: SPR. This is another data set of the same source.
From the text: as §1, §2
For the molecule B5, the Kd came to 0.33 nM, the dissociation rate constant (koff) stood at 0.000608 s⁻¹ and the kon worked out at 1.84e+06 M⁻¹ s⁻¹.
Turning to B6, the dissociation constant (Kd) is 0.293 nM, the koff is 0.000623 s⁻¹ and the association rate constant (kon) was determined as 2.12e+06 M⁻¹ s⁻¹.
The molecule B7 showed a Kd of 0.169 nM, a koff of 4.79e-05 s⁻¹ and a kon of 284000 M⁻¹ s⁻¹.
Taken in the same sequence, the figures for B8 were 0.442 nM, 0.000607 s⁻¹ and 1.37e+06 M⁻¹ s⁻¹.
On to B9, for which the Kd stood at 0.299 nM, the koff stood at 0.000608 s⁻¹ and the kon worked out at 2.03e+06 M⁻¹ s⁻¹.
For the molecule B10, the koff was determined as 4.67e-05 s⁻¹ and the kon stood at 889000 M⁻¹ s⁻¹.
The molecule B11 came in with a Kd of 0.316 nM, a koff of 0.000573 s⁻¹ and a kon of 1.81e+06 M⁻¹ s⁻¹.
For B12, the dissociation constant (Kd) is 0.0624 nM, the koff stood at 4.41e-05 s⁻¹ and the on-rate (kon) was determined as 707000 M⁻¹ s⁻¹.
The like results for B13 were, in that order, 1.11 nM, 0.000667 s⁻¹ and 599000 M⁻¹ s⁻¹.
The molecule B14 showed a dissociation constant (Kd) of 1.34 nM, a koff of 0.000768 s⁻¹ and a kon of 574000 M⁻¹ s⁻¹.
As to B15, binding was put at a Kd of 1.75 nM, the koff amounted to 0.000808 s⁻¹ and the kon was 463000 M⁻¹ s⁻¹.
B16 yielded a Kd of 2.27 nM, a koff of 0.00101 s⁻¹ and a kon of 447000 M⁻¹ s⁻¹.
The molecule B17 yielded a Kd of 0.134 nM, an off-rate constant (koff) of 0.000274 s⁻¹ and a kon of 2.05e+06 M⁻¹ s⁻¹.

In the next assay the target is T1, human VEGF (hVEGF). In words: SPR. The source holds these as a separate data set.
From the text: as §1, §2
B5 yielded a Kd of 0.33 nM, a koff of 0.000608 s⁻¹ and a kon of 1.84e+06 M⁻¹ s⁻¹.
B6 returned a Kd of 0.293 nM, a koff of 0.000623 s⁻¹ and a kon of 2.12e+06 M⁻¹ s⁻¹.
As to B7, binding was characterised by a dissociation constant (Kd) of 0.169 nM, the koff was 4.79e-05 s⁻¹ and the kon worked out at 284000 M⁻¹ s⁻¹.
With B8, the Kd was determined as 0.442 nM, the dissociation rate constant (koff) was found to be 0.000607 s⁻¹ and the kon came out at 1.37e+06 M⁻¹ s⁻¹.
Consider B9, for which the Kd was 0.299 nM, the koff stood at 0.000608 s⁻¹ and the association rate constant (kon) stood at 2.03e+06 M⁻¹ s⁻¹.
Consider B10, for which the koff was found to be 4.67e-05 s⁻¹ and the kon was found to be 889000 M⁻¹ s⁻¹.
B11 registered a Kd of 0.316 nM, a koff of 0.000573 s⁻¹ and a kon of 1.81e+06 M⁻¹ s⁻¹.
B12 came in with a Kd of 0.062 nM, an off-rate (koff) of 4.41e-05 s⁻¹ and a kon of 707000 M⁻¹ s⁻¹.
The molecule B17 yielded a Kd of 0.134 nM, a koff of 0.000274 s⁻¹ and a kon of 2.05e+06 M⁻¹ s⁻¹.

The next assay addresses T1, human VEGF (hVEGF). In words: SPR single-cycle.
From the text: as §1, §2
In the case of B18, the “Fold difference (relative to G6.31)” value amounted to 3.4 fold, binding was characterised by a dissociation constant (Kd) of 0.45 nM, the koff is 0.000542 s⁻¹ and the kon was determined as 1.2e+06 M⁻¹ s⁻¹.
The like results for B19 were, in that order, 0.6 fold, 2.71 nM, 0.000974 s⁻¹ and 360000 M⁻¹ s⁻¹.
Turning to B20, the “Fold difference (relative to G6.31)” value was 1.8 fold; the affinity, expressed as Kd, was 0.85 nM; the off-rate constant (koff) was found to be 0.000515 s⁻¹; the kon worked out at 603000 M⁻¹ s⁻¹.
With B21, the “Fold difference (relative to G6.31)” value was determined as 1.8 fold, binding was characterised by a dissociation constant (Kd) of 0.85 nM, the koff turned out to be 0.000575 s⁻¹ and the on-rate (kon) was found to be 678000 M⁻¹ s⁻¹.
In the case of B22, the “Fold difference (relative to G6.31)” value was 1.5 fold, binding was characterised by a dissociation constant (Kd) of 1 nM, the koff amounted to 0.00066 s⁻¹ and the kon worked out at 658000 M⁻¹ s⁻¹.
Turning to B23, the “Fold difference (relative to G6.31)” value came out at 3.5 fold, the Kd turned out to be 0.44 nM, the koff is 0.000435 s⁻¹ and the kon was found to be 991000 M⁻¹ s⁻¹.
As to B24, the “Fold difference (relative to G6.31)” value was 0.8 fold, the Kd was 1.86 nM, the koff was 0.000802 s⁻¹ and the kon was 432000 M⁻¹ s⁻¹.
Taken in the same sequence, the figures for B25 were 1.5 fold, 1.02 nM, 0.000358 s⁻¹ and 352000 M⁻¹ s⁻¹.

Source of the values: US20210115124A1 (Genentech, published 2021).
